From patent US20110009310A1 (CELECURE, published 2011)

Key:
[1] = molecular target: VEGFR1 (isolated recombinant receptor) (UniProt P17948 27-756, limits assumed); experiment: modified ELISA; CD44-3MUT coated on wells, recombinant VEGFR1 added, detected with anti-VEGFR antibody
Description: (§1) Modified ELISA tests to evaluate the binding of VEGFR2 (panel A) and VEGFR1 (panel B) to immobilized CD44-3MUT. […] Nonspecific binding was blocked with 2.5% non-fat dry milk solution. VEGFR1 and VEGFR2 were added into the coated wells and incubated for 1 h at RT. VEGFR binding was detected with anti-VEGFR antibodies
(§2) We have developed a modified ELISA test (to detect CD44-3MUT binding specificity to isolated recombinant receptors VEGFR1 and VEGFR2).

[2] = molecular target: VEGFR2 (isolated recombinant receptor) (UniProt P35968 20-764, limits assumed); experiment: modified ELISA; CD44-3MUT coated on wells, recombinant VEGFR2 added, detected with anti-VEGFR antibody
Chain of VEGFR2 (isolated recombinant receptor) (P35968 20-764 limits assumed): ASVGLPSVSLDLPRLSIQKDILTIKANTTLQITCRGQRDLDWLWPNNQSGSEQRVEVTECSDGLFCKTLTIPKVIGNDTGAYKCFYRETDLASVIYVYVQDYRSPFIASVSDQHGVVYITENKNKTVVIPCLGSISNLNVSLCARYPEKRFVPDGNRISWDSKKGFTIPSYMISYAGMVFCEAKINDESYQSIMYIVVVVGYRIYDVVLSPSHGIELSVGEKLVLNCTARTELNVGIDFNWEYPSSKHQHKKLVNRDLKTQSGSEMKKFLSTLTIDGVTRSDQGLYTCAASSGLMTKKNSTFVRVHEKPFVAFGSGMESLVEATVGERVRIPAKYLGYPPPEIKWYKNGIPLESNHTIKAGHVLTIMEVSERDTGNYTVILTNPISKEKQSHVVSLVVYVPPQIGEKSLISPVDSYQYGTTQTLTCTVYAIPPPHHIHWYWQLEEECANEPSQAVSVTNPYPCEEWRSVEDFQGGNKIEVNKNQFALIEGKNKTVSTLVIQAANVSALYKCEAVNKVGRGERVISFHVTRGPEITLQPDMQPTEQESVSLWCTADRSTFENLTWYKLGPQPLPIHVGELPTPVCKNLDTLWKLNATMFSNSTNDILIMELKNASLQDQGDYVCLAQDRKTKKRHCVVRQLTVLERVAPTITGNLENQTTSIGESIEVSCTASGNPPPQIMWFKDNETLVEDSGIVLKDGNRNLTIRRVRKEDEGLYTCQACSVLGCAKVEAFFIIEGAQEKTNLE
Description: as §1, §2

Chain of VEGFR1 (isolated recombinant receptor) (P17948 27-756 limits assumed): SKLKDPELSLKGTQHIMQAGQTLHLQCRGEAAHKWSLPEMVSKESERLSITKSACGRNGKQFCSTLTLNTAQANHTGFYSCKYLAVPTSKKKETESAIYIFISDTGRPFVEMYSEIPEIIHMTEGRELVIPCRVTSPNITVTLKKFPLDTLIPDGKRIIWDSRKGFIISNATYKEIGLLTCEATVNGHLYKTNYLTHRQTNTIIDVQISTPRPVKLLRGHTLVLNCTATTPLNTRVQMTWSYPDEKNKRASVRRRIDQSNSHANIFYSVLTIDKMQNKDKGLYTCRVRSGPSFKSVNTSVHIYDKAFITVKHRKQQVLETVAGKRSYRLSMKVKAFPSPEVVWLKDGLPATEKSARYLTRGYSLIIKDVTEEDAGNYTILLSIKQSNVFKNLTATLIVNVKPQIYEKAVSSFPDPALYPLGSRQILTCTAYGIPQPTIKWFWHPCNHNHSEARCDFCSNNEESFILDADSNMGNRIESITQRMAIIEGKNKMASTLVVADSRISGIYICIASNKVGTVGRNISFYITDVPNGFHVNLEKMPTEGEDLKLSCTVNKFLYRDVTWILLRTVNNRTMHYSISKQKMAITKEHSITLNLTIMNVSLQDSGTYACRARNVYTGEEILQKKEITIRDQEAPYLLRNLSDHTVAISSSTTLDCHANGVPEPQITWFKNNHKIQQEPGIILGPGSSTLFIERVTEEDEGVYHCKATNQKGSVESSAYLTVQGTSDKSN

binding result [1]: no binding
binding result [2]: no binding
B1: CD44HABD^R41AR78SY79S (non-HA-binding triple mutant of the human CD44 hyaluronic acid binding domain) (other)
chain: QIDLNMTCRFAGVFHVEKNGAYSISRTEAADLCKAFNSTLPTMAQMEKALSIGFETCSSGFIEGHVVIPRIHPNSICAANNTGVYILTSNTSQYDTYCFNASAPPEEDCTSV
notes: Made in E. coli, non-glycosylated; also called CD44-3MUT; 3MUT
